# Source: the DeepSol protein solubility set
# Assay: soluble on expression in E. coli; label from the status in PepcDB or PDB records
row,Sequence,soluble on expression in E. coli
1,LPHLMKYMGSKRELLDFIISSINDLDIESNWFCDLFSGTSVVGCSLKDEYNVQINDIQIYTSIFANTYLPNINKLINSTELEKIKDRVLFYVDEFYRKYPDLIFDYNSIDNYEKLTKLEIQQQNLIYSNFEIGFHLFVKYYSGTYWSYTQCVWIDSIRAVAEEYKGKSDYYIILSSLIYAMSYTSQSTGHFAQFRDVTESNMHDIMLYRIRDIWTYFEKKFLEILNMVDVEATNRYTITTLDYLDCLRLIERNTIVYADPPYSSVHYSRFYHAIETLIRYDYPNVKYKGRYREDRHQSPFGKKTEVKNAFGKLFKGVKNKNSHLILSYSDNGMITQDEIMEIGNSIMGNQYKGDIQVKEYIHSKMGRSDIHSMGVNELIISYKRQ,not soluble
2,SSLDDKPQFPGASAEFIDKLEFIQPNVISGIPIYRVMDRQGQIINPSEDPHLPKEKVLKLYKSMTLLNTMDRILYESQRQGRISFYMTNYGEEGTHVGSAAALDNTDLVFGQYREAGVLMYRDYPLELFMAQCYGNISDLGKGRQMPVHYGCKERHFVTISSPLATQIPQAVGAAYAAKRANANRVVICYFGEGAASEGDAHAGFNFAATLECPIIFFCRNNGYAISTPTSEQYRGDGIAARGPGYGIMSIRVDGNDVFAVYNATKEARRRAVAENQPFLIEAMTYAIGHASTSDDSSAYRSVDEVNYWDKQDHPISRLRHYLLSQGWWDEEQEKAWRKQSRRKVMEAFEQAERKPKPNPNLLFSDVYQEMPAQLRKQQESLARHLQTYGEHYPLDHFDK,soluble
3,GMRVDKHEVRVGELAAGQPLSLPVYRFKGKGAGPSVYIQANVHGAEVQGNAVIYQLMKLLEHYELLGDISLVPLANPLGINQKSGEFTLGRFDPITGVNWNREYLDHGFNIEVWYQEHSHLDDDTLITAFRATLVEECARRLNNPWGVTTGHRLAVTLQSMAHRADIVLDLHTGPKSCKHLYCPEYERSAAQYFSIPYTLLIPNSFGGAMDEAAFVPWWTLAEVASSHGRELGVRVSALTLELGSQERIDLDDALEDAEGILAYLSHRGVIAETVLPKPMKRYGCFLKNYRKFHAPKAGMVEYLGKVGVPMKATDPLVNLLRLDLYGTGEELTVLRLPEDGVPILHFASASVHQGTELYKVMTKVFEL,soluble
4,MAHHHHHHMTRVLVNREDCSVQVKGDLITFLYATVAKDPLVVASRNVTQLLRSRKDDTAAKLVADGESYVLKFESLRDREGFIESIVRAQEAEQALSNDEWVASTICHAAVDVGVLDQEELRAIMSAAGQRGVEQAFDALETLVDRETFQLLPITEQMENDVLRQTPVLAAIFQERVVDKETKKSFWEAVVRKYFCFSRTFLEEDIQRLEGARSVATAASPPLSGSAATSSLSVINASSMCALPKGAATAMLDTDINEEDLLHLDENVEPLQQSFHGLFAAHRHLPVGSASVLPVNGAALPFPQETAEPSPVYRPRFVGFRVLHQLPSETIEKAALETLRTFWRSSVKQRRSILAKYTRISKKGGGGFIQRMCLEQADRAVQNT,not soluble
5,GSHMASMTGGQQMGRGSWKRAFLAFGSNIGDRFKHIQMALQLLSREKTVKLRNISSIFESEPMYFKDQTPFMNGCVEVETLLTPSELLKLCKKIEYEELQRVKHFDNGPRTIDLDIVMFLNSAGEDIIVNEPDLNIPHPRMLERTFVLEPLCELISPVHLHPVTAEPIVDHLKQLYDKQHDEDTLWKLVPLPYRSGVEPRFLKFKTATKLDEFTGETNRITVSPTYIMAIFNATPDSFSDGGEHFADIESQLNDIIKLCKDALYLHESVIIDVGGCSTRPNSIQASEEEEIRRSIPLIKAIRESTELPQDKVILSIDTYRSNVAKEAIKVGVDIINDISGGLFDSNMFAVIAENPEICYILSHTRGDISTMNRLAHYENFALGDSIQQEFVHNTDIQQLDDLKDKTVLIRNVGQEIGERYIKAIDNGVKRWQILIDPGLGFAKTWKQNLQIIRHIPILKNYSFTMNSNNSQVYVNLRNMPVLLGPSRKKFIGHITKDVDAKQRDFATGAVVASCIGFGSDMVRVHDVKNCSKSIKLADAIYKGLE,soluble
6,MKFDNKAPIYIQIMDKIKIDIINGTLKPGDKLPSVREMAVKFKVNPNTLQRVYQELERENITYTQRGTGSFVREDSDMIINLKKEMASEVIENFIENIKEFGFGNKDILKIVEDKLNEEEK,soluble
7,MKAVTTSPSDPPDPFDPLDPVDPLASTKPEVDVVLPCLDEADALPWVLARIPPGWRALVVDNGSTDGSAEIARRLGATVVPETRRGFGAACHAGLTAATADIVCFCDCDGSLDPSLLVPFVREVRDGAADLVLGRRRPHGRGAWPAHARAGNLALARMLRRRTGLRLHDLGPLRAARREPLLALGLTDRRSGYPLQMVVRAADAGWRIAEHDVPYLPRTGVSKVTGTWRGTWQAVRDMSRVLAEPAQDGPPESGSLSSSQGGSSQLEHHHHHH,not soluble
8,MGSDKIHHHHHHMITNTHLLISYIVYKNLYNNFNFKLDMAAFALGNIKPDFINKEIKCSHTLNESLDSLIEYSNKLVKYNNSIRKFSLALGIVCHYICDYFCIYHRDGNEKKGILEHLIYEVKLDSNFTMMFLKGKLNYFGCRDYGGSIKKIIFNIEKEYKLEEKDFKRDIKYALFAAIESSKFIVYSSKLYGN,not soluble
9,MGSDKIHHHHHHMASNITGFELFKSNPNWQELPDSFWEFCSAHGRVRHYAAKQFLFFFGEESNSVYFLLKGRIQILLMSEFTEKIFRILQPPAFFPEVVLDSKTYPYAALTAEASDVFVLDRKALVQYFKENPSTLLPFYQNMALDLRRAYRQIKNIALGDARSRLGAKLFALAHVHGQETPEGILITVPLTATELAGMCSLARESVSRILSELRDLGILKMEKKQITISDLEQLRSWIHERQNSL,not soluble
10,MVQEAPAALPTEPGPSPVPAFLGKLWALVGDPGTDHLIRWSPSGTSFLVSDQSRFAKEVLPQYFKHSNMASFVRQLNMYGFRKVVSIEQGGLLRPERDHVEFQHPSFVRGREQLLERVRRKVPALRGDDGRWRPEDLGRLLGEVQALRGVQESTEARLRELRQQNEILWREVVTLRQSHGQQHRVIGKLIQCLFGPLQAGPSNAGGKRKLSLMLDEGSSCPTPAKFNTCPLPGALLQDPYFIQSPLPETNLGLSPHRARGPIISDIPEDSPSPEGTRLSPSSDGRREKGLALLKEEPASPGGDGEAGLALAPNECDFCVTAPPPLPVAVVQAILEGKGSFSPEGPRNAQQPEPGDPREIPDRGPLGLESGDRSPESLLPPMLLQPPQESVEPAGPLDVLGPSLQGREWTLMDLDMELSLMQPLVPERGEPELAVKGLNSPSPGKDPTLGAPLLLDVQAALGGPALGLPGALTIYSTPESRTASYLGPEASPSP,soluble
11,MSLGKDIKVGYNWELSGNVSSYGNSMKNGADLAVKEINAAGGVGGKKLKVLSQDNKSENAEAATVATNLVTKGANVIIGPATSGAAASSTPKVNAAAVPMIAPAATQDNLVYGSDGKTLNQYFFRATFVDNYQGKLLSQYATDNLKAKKVVLFYDNSSDYSKGVAKSFKESYSGKIVDSMTFSAGDTDFQASLTKLKGKEYDAIVMPGYYTETGLIVKQARDLGISKPVLGPDGFDSPKFVQSATPVGASNVYYLTGFTTQGSTKAKAFHDHYVKAYGEEPSMFSALSYDAVYMAAKSAKGAKTSIDIKKALAKLKDFKGVTGKMSIDKNHNVVKSAYVVKLEDGKTSSVNIISAKEGHHHHHH,soluble
12,SNAMKFELPKLPYAVDALESTISKETIEYHYGKHHQTYVTNLNNLVEGTEHDGRNLEEIVKTSNGGIFNNAAQVFNHTFYWNCLTPNKTEASSQLKAALIETFGSVENFKEQFSKAAIATFGSGWAWLVKNTEGKLEIVTTSNAGCPLTENKKPLLTFDVWEHAYYIDYRNARPKYVEALWDIVNWQFVSEQFAD,soluble
13,MSVEIESIEHELEESIASLRQAGVRITPQRQAILRYLISSHTHPTADEIYQALSPDFPNISVATIYNNLRVFKDIGIVKELTYGDSSSRFDFNTHNHYHIICEQCGKIVDFQYPQLNEIERLAQHMTDFDVTHHRMEIYGVCKECQDK,not soluble
14,MELTFNQAAKGVNKEFTVNIMDTCERCNGKGNEPGTKVQHCHYCGGSGMETINTGPFVMRSTCRRCGGRGSIIISPCVVCRGAGQAKQKKR,soluble
15,MTNDLIQLIDSLMVNIPAGEVVLRDDRIKKEWLVQIQPFLLAKYAVTMELYDAITNSTLNNFDKNHKPVVNISWNDAIAFCNVLSKKAGLKEYYSISDGGQIVKCNLDSNGYRLPSEAEWQYACKASTTGYTYGKLHDIAWYNENSNGEIHDVGQKEPNAWGLYDMLGNVWEWCYDLYDETVYGSYRIFRGGSWAETARGCGATCRRRSHPTFHIDDLGFRLARSILEHHHHHH,soluble
16,MGSDKIHHHHHHMGILVVGSVAFDSVETPFGRVENVLGGSATYFSTSASFFTDVSLVAVVGEDFPQEHVEFLNSRNIDLRGLAREGGKTFHWKGKYGYDLNEAQTLETHLNVFESFRPQIPAAYRDAEFLFLANIDPELQMEVLSQVEKPRVIACDTMNFWISSKPEALKAVIAKVDIFIINEGEARQFTQEANLTKAARKILAMGVKTLVIKRGEYGVLMFTDHSVFAAPAFPLEDVFDPTGAGDTFAGGFMGYLANTGDTSETGIRQAIIFGSVMASFNVEDFSLNRLKRLEYREIEDRYRSFKALTHFEGLAGG,not soluble
17,MLGYAFPSILGNLMSKIYQMDAVDWLKTLENCSVDLFITDPPYESLEKYRQIGTTTRLKESKSSSNQWFSVFPNTRFEELFREVYRVLKKGSHFYLFCDQETMFLAKPIAESVGFKFWKPIVWDKCAIGMGYHYRARYEFILFFEKGKRKLNDLSVPDVLEYKRVWKGYPTEKPVELLEVLIRQSSSENEIVADSFFGSGSTLIAANNLSRKYIGCDISSSAHEYFKNRA,not soluble
18,MGSDKIHHHHHHMKSYVLTVSCKSTRGIVAAITGYLAEKGCYISDSSQFDDFQTGLFFMRLTFISQDGAKLEELREGFEPVIKRFEMMMEIRDSEERMKVLLMVSRFGHCLNDLLYRWKIGALPIDIVGVVSNHFDYQKVVVNHDIPFHHIKVTKENKPKAEAQLMDVVEQTGAELIVLARYMQVLSDALCKKMSGKIINIHHSFLPSFKGANPYKQAYERGVKLIGATAHYVTADLDEGPIIEQDIARITHAQSAEDYVSIGRDVESQVLARAVHAHIHHRCFINGNRVVVFPPSPGSYASERMG,not soluble
19,MSLASEILPDEFLELFKDLKKPPKKLHYKGNLSLLKQDKIAIIGSRRMSVYTKNCVFSLASMLKNAHLCVVSGGALGVDITASMAAMPNTIGIFANGLDQIYPRTNEKIIKQIYENALALSEYEDDYLPKNYDFLLRNRLVIALSKAVVVAQADIKSGSMQSAKLALELNKPLYVLPQRLGESTATNLLLKENKAKLICDFKEFVSEFASIDMNQDEFLEFCKKGVSVDEALKIYGQKVYEYELEGKISIEGLFIRVLAEGHHHHHH,soluble
20,MSEISDAEKVRIASDFIKHAPPGEFNEVFNSVRMLLENDDLLKNKCVNAIAQYNVGQFVPVKLDGVAKQTLITPYNDLGNGRFYDEVSKKSFKYDHVRKEAADLQPHPAESGITEQWRQALQTQLDIYIDDHYAKSGTGVVFARNGVFTICIESHQFQPKNFCNGRWRSEWNVPVGDGKSGSQEMKGKILSQVHYYEDGNVQLFSEKEPVLKVNVSADFDKTAKEIIHAISEEETIYQNAVQENYANMSDTTFKALRRQLPVTRAKMDWNKAQTYRIGQEMK,soluble
21,MPRPPHLCTCGQLVPHGARCSCQIQRDRERKARFDQKRPSSRERGYTHEWRKARAEFLHQHPTCAFCGAPAGVVDHVIPHKGDMTLFWDRTNWQALCKPCHDRQKQMQERYNHIISLEHHHHHH,not soluble
